From US20060034860A1

Experiments:
[1] = target: HIV-1 protease, bait PR_v1 (HIV-1 isolate YU2) (UniProt P35963); test: cell-based or functional assay
[2] = target: HIV-1 Integrase (IN), bait IN (HIV-1 isolate YU2) (UniProt P35963); test: cell-based or functional assay
Chain of HIV-1 Integrase (IN), bait IN (HIV-1 isolate YU2) (P35963 1148-1435 limits assumed): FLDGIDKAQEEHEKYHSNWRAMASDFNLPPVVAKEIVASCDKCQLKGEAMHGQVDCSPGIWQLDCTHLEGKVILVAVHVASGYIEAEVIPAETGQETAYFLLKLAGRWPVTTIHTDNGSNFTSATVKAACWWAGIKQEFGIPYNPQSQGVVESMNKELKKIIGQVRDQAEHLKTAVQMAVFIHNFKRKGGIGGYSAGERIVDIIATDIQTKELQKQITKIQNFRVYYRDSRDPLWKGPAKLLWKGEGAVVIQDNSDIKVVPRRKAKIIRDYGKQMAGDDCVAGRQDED

Chain of HIV-1 protease, bait PR_v1 (HIV-1 isolate YU2) (P35963 489-587 limits assumed): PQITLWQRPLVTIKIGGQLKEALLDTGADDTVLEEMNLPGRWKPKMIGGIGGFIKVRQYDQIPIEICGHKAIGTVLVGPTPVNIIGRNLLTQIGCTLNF

| Substance | inhibition of HIV-1 infection (p24 antigen in supernatant) after siRNA against AIM1, HeLa cells with CD4 and CCR5 [1] | inhibition of HIV replication (p24 antigen in supernatant) after siRNA against LEDGF, HeLa cells with CD4 and CCR5 [2] |
| --- | --- | --- |
| Human AIM1 (prey030612), Absent in Melanoma, prey fragments, Q9Y4K1 1-2131 | 30% |  |
| LEDGF p75 isoform (PSIP2), prey fragments (from UniProt O75475 340-417) |  | 84% |
